Measured values from publication PMC7293038.

Tests used:
Test in all cases: BLI; biotinylated Avi-tag-ZIgE-SpyCatcher loaded on streptavidin Octet tips (2.5 ug/ml, 60 s); IgE as analyte in PBST with 30 mg/ml skimmed milk; 300 s association, 400 s dissociation; 1:1 binding model assuming only partial dissociation; mean of three IgE concentrations
[1] = target: Avi-tag-ZIgE^44-SpyCatcher
[2] = target: Avi-tag-ZIgE^33-SpyCatcher
[3] = target: Avi-tag-ZIgE^consensus-SpyCatcher
[4] = target: Avi-tag-ZIgE^wild-type-SpyCatcher

Kd [1]: 4.8 µM
Kd [2]: 2.1 µM
Kd [3]: 0.61 µM
Kd [4]: 7.3 µM
Substance: IgE (native human monoclonal, Abcam ab65866) (antibody)
